The source of these data is article PMC12808597, “Spatially diffuse cAMP signalling with oppositely biased GLP-1 receptor agonists in β-cells despite differences in receptor localisation” (Molecular Metabolism, 2025).

For assay [1], the target named is human glucagon-like peptide-1 receptor, untagged (human) (UniProt P43220). The assay can be described thus: imaging of fluorescent ligand bound to cells; Cy5- or TMR-agonist over a concentration range, 30 min stimulation; AD293 cells expressing untagged hGLP-1R or mGLP-1R, or wild-type INS-1 832/3 cells (non-specific binding from INS-1 832/3 Glp1r-/- cells subtracted); 'functional affinities'.
Sequence of human glucagon-like peptide-1 receptor, untagged (human) (P43220 24-463): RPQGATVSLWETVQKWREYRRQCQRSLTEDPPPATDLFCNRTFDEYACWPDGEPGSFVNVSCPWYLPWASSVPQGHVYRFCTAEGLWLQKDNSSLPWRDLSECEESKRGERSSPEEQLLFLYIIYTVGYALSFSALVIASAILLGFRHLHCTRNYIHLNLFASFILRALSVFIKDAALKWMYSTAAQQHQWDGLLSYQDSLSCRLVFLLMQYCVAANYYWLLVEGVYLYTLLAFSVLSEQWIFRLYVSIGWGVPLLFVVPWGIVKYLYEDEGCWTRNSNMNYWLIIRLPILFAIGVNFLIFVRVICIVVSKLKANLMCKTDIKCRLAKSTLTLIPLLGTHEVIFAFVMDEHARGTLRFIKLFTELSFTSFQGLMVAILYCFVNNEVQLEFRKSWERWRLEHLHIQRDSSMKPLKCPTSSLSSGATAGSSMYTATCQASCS

Assay [2] concerns the target mouse glucagon-like peptide-1 receptor, untagged (mouse) (UniProt O35659). The description is as above.
The target in assay [3] is GLP-1R endogenous in wild-type mouse pancreatic islets (mouse (endogenous in C57Bl/6J islets)) (UniProt O35659). The assay can be described thus: imaging of fluorescent ligand in intact islets; wild-type mouse islets, 1 nM TMR-agonist, continuous 60 min or 10 min then exendin(9-39) washout.
Sequence of GLP-1R endogenous in wild-type mouse pancreatic islets (mouse (endogenous in C57Bl/6J islets)) (O35659 22-463): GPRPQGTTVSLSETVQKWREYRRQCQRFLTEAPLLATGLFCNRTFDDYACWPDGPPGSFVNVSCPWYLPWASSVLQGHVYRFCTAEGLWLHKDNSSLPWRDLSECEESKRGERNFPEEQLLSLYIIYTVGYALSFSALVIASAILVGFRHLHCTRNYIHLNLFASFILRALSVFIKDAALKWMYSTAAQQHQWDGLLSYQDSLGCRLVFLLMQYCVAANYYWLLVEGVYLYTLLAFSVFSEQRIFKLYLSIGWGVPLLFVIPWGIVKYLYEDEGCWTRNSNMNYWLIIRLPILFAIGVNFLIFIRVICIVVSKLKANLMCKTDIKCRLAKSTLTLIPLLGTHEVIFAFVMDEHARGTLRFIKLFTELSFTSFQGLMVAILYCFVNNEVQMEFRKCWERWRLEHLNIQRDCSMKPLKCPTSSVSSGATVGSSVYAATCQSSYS
The target in assay [4] is mouse glucagon-like peptide-1 receptor, untagged (mouse) (UniProt O35659). The assay can be described thus: imaging of fluorescent ligand bound to cells; washout: TMR-agonist detected at 60 min in AD293 cells transiently expressing untagged GLP-1R, with or without 20 uM exendin(9-39) applied 10 min after agonist.
Sequence of mouse glucagon-like peptide-1 receptor, untagged (mouse) (O35659 22-463): as above

Take “exendin-asp3 tetramethylrhodamine conjugate (peptide)”: the fold lower affinity than the Cy5 equivalent in assay [1] worked out at 5 fold; in assay [2] it was 3 fold. The same substance displayed a total ligand bound after washout relative to continuously applied ExF1 in assay [3] of 2 fold.

The substance exendin(9–39) (peptide) yielded a percent reduction of total ExD3-TMR binding by washout with 20 uM exendin(9-39) in assay [4] of 50%.

For “exendin-phe1 tetramethylrhodamine conjugate (peptide)”, the fold lower affinity than the Cy5 equivalent in assay [1] came out at 5 fold; in assay [2], 3 fold.
